According to patent publication US9815881B2, “Method of inducing labor or treating pre-eclampsia by administering relaxin analogs” (The Board of Trustees of the Leland Stanford Junior …, priority 2009, dated 2017):
Where no end group is shown, it is not given here.

B1: WT INSL3: recombinant wild type human insulin-like 3 (protein)
chain 1: PTPEMREKLCGHHFVRALVRVCGGPRWSTEAHHHHHH
chain 2: AAATNPARYCCLSGCTQQDLLTLCPY
modifications: left off: small tags and cut ends

Columns and labels:
[1] = biological target: T1, LGR7 (Homo sapiens, UniProt Q9HBX9); assay: Receptor-binding assay: competition for 125I-labeled RLN2 binding to LGR7-expressing HEK293T cells; conditions: competition for labeled RLN2 binding to LGR7
T1 construct: HEK293T cells stably expressing recombinant LGR7 or LGR8; expressed in transfected cells
T1 sequence (Q9HBX9 1-757): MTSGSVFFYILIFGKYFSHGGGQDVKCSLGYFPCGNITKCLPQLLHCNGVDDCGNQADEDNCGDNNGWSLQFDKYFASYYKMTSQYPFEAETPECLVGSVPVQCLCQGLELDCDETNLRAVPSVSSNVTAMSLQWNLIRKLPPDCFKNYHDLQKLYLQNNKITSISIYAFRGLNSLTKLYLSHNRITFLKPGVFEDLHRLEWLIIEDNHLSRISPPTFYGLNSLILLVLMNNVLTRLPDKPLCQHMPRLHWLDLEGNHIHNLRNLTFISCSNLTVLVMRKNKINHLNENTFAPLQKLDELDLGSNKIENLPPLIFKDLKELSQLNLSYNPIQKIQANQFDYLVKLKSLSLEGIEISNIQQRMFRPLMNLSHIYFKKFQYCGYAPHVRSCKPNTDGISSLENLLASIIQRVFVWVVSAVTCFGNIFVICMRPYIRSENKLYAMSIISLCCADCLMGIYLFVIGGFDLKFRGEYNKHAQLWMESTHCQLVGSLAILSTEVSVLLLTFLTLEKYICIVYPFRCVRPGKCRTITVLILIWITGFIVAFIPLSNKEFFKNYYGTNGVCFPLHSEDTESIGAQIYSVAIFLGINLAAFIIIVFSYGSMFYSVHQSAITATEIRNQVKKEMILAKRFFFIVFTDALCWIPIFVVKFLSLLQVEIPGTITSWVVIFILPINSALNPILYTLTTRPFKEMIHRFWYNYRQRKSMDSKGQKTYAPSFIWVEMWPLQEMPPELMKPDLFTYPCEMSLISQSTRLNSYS
Experimental: To determine the binding characteristics of wild type and mutant peptides, HEK293T cells expressing LGR7 or LGR8 were grown to 90% confluence, collected by centrifugation at 3000×g for 2 min, and washed two times in 2 ml of ice-cold binding buffer. Cells were resuspended in ice-cold binding buffer, and aliquots of cell suspension were incubated with increasing doses of purified recombinant peptides in the presence of 0.025 pmol of ^125I-labeled RLN2 tracer (Phoenix Pharmaceuticals, Burlingame, Calif.) at room temperature for 2 h. After washing three times in an ice-cold binding buffer, radioactivity bound to the cells was measured using a γ-counter (EG&G Wallace, Gaithersburg, Md.). Total binding was determined in the absence, and nonspecific binding in the presence, of 25 nmol of unlabeled RLN2. In regular assays, total binding was ˜30,000 cpm, and nonspecific binding amounted to less than 20% of the total binding. Data points were collected in triplicate, and similar results were obtained in at least two independent assays.
(§1) Receptor-activation and receptor binding activity curves generated in nonlinear regression analyses (Prism; GraphPad Software, San Diego, Calif.) were evaluated relative to the samples without hormone treatment. In all cases data are reported as the mean±S.E. of assays in triplicate or quadruplicate. Statistically significant responses (p<0.05) were determined for each stimulated response to the average nonspecific response from control samples using analysis of variance and Student's t test.

[2] = biological target: T1, LGR7; assay: Receptor-activation analysis: cAMP production in LGR7-expressing HEK293T cells; type: cell-based; conditions: for pEC50 on the activation of LGR7: HEK293T cells stably expressing LGR7, mean ± S.E., ND = pEC50 not measurable; for LGR7-activation activity (result in words): LGR7-expressing HEK293T cells
Experimental: (§2) The bioactivity of relaxin family peptides was determined based on the stimulation of adenylate cyclase activity in HEK293T cells stably expressing recombinant LGR7 or LGR8. Stable LGR7- or LGR8-expressing cells were maintained in Dulbecco's modified Eagle's medium/F-12 media supplemented with […] Zeocin (Invitrogen). After seeding at a density of 2×10^5 cells per well in 500 μl of Dulbecco's modified Eagle's medium/F-12 medium containing 0.1% bovine serum albumin in 48-well plates, cells were preincubated at 37° C. for 30 min in the presence of 0.25 mM 3-isobutyl-1-methylxanthine before treatment with increasing concentrations of peptides (from 0 to 100 nM) in quadruplicate. Twelve hours after treatment, the culture was reacted with acetic anhydride/triethylamine, and total cAMP content in cell lysates was measured using a specific cAMP radioimmunoassay. A nontagged human RLN2 peptide was used as a standard to verify the bioactivity of tagged RLN2 peptides.
as §1

[3] = biological target: T2, LGR8 (Homo sapiens, UniProt Q8WXD0); assay: Receptor-activation analysis: cAMP production in LGR8-expressing HEK293T cells; type: cell-based; conditions: for LGR8-activation activity (result in words): LGR8-expressing HEK293T cells
T2 construct: HEK293T cells stably expressing recombinant LGR7 or LGR8; expressed in transfected cells
T2 sequence (Q8WXD0 whole entry): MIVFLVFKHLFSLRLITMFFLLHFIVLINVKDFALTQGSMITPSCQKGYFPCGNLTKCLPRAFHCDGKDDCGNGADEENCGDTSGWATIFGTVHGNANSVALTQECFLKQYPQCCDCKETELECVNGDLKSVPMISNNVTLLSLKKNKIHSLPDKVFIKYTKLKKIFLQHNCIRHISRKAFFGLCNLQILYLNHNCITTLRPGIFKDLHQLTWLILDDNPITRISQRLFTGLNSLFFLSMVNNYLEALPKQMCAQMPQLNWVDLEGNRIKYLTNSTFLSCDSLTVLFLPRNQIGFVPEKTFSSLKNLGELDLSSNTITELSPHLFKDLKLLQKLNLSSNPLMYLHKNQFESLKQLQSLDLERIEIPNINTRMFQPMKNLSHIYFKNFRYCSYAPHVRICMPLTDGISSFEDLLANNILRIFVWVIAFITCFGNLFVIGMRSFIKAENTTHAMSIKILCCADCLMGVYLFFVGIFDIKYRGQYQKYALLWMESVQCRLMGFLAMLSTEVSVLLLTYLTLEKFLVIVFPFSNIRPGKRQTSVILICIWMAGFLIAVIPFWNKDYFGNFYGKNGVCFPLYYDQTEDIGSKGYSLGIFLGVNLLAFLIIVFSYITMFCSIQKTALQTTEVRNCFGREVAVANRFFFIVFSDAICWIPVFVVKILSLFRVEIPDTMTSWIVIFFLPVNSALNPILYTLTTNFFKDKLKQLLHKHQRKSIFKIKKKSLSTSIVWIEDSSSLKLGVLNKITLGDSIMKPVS
Experimental: as §2, §1

Row | Molecule | pEC50 on the activation of LGR7 [2] | LGR7-activation activity (result in words) [2] | LGR8-activation activity (result in words) [3] | other results
1 | RLN2 C-8: Myc- and His6-tagged RLN2 from construct with a truncated C-domain of 8 amino acids (chain 1 SWMEEVIKLCGRELVRAQIAICGMSTWSHHHHHH; chain 2 QLYSALANKCCHVGCTKRSLARFC; ends and bridges not checked; also: Myc tag, not in given chain) | – | – | – | LGR7-binding activity (result in words) [1]: high affinity
2 | RLN2 C-18: tagged RLN2 from construct with B and A chains linked by a truncated C-domain of 18 amino acids (chain 1 SWMEEVIKLCGRELVRAQIAICGMSTWSHHHHHH; chain 2 QLYSALANKCCHVGCTKRSLARFC; not fully specified; ends and bridges not checked) | 8.74 ± 0.09 | – | – | –
3 | RLN2 C-28: tagged RLN2 from construct with B and A chains linked by a truncated C-domain of 28 amino acids (chain 1 SWMEEVIKLCGRELVRAQIAICGMSTWSHHHHHH; chain 2 QLYSALANKCCHVGCTKRSLARFC; not fully specified; ends and bridges not checked) | 8.66 ± 0.07 | – | – | –
4 | RLN2 C-104: tagged RLN2 derived from the construct containing a 104-amino acid C domain sequence (chain 1 SWMEEVIKLCGRELVRAQIAICGMSTWSHHHHHH; chain 2 QLYSALANKCCHVGCTKRSLARFC; not fully specified; ends and bridges not checked) | 8.74 ± 0.05 | – | – | –
5 | RLN2 K^A17A: RLN2 mutant with alanine substitution at LysA17 of the A chain (chain 1 SWMEEVIKLCGRELVRAQIAICGMSTWSHHHHHH; chain 2 QLYSALANKCCHVGCTARSLARFC; not fully specified; ends and bridges not checked) | – | high potencies on the activation of both LGR7 and LGR8 | significantly enhanced LGR8-activation activity | LGR8-activation activity (result in words) ([3]; listed as RLN2 KA17A): high potencies on the activation of both LGR7 and LGR8
6 | RLN2 K^A17D: RLN2 mutant with aspartic acid at the LysA17 position (chain 1 SWMEEVIKLCGRELVRAQIAICGMSTWSHHHHHH; chain 2 QLYSALANKCCHVGCTDRSLARFC; not fully specified; ends and bridges not checked) | – | – | did not exhibit an enhanced LGR8-activation activity | –
7 | RLN2 K^A17G: RLN2 mutant with glycine at the LysA17 position (chain 1 SWMEEVIKLCGRELVRAQIAICGMSTWSHHHHHH; chain 2 QLYSALANKCCHVGCTGRSLARFC; not fully specified; ends and bridges not checked) | – | – | did not exhibit an enhanced LGR8-activation activity | –
8 | RLN2 K^A17Q: RLN2 mutant with glutamine at the LysA17 position (chain 1 SWMEEVIKLCGRELVRAQIAICGMSTWSHHHHHH; chain 2 QLYSALANKCCHVGCTQRSLARFC; not fully specified; ends and bridges not checked) | – | – | did not exhibit an enhanced LGR8-activation activity | –
9 | RLN2 R^B12A: RLN2 mutant with alanine substitution of ArgB12 in the B chain RXXXRXXI motif (chain 1 SWMEEVIKLCGAELVRAQIAICGMSTWSHHHHHH; chain 2 QLYSALANKCCHVGCTKRSLARFC; not fully specified; ends and bridges not checked) | – | abolished the LGR7- and LGR8-activation activities | abolished the LGR7- and LGR8-activation activities | –
10 | RLN2 R^B16A: RLN2 mutant with alanine substitution of ArgB16 in the B chain RXXXRXXI motif (chain 1 SWMEEVIKLCGRELVAAQIAICGMSTWSHHHHHH; chain 2 QLYSALANKCCHVGCTKRSLARFC; not fully specified; ends and bridges not checked) | – | abolished the LGR7- and LGR8-activation activities | abolished the LGR7- and LGR8-activation activities | –
11 | RLN2 T^A16A: RLN2 mutant with alanine substitution at ThrA16 of the A chain (chain 1 SWMEEVIKLCGRELVRAQIAICGMSTWSHHHHHH; chain 2 QLYSALANKCCHVGCAKRSLARFC; not fully specified; ends and bridges not checked) | – | high potencies on the activation of both LGR7 and LGR8 | significantly enhanced LGR8-activation activity | LGR8-activation activity (result in words) ([3]; listed as RLN2 TA16A): high potencies on the activation of both LGR7 and LGR8
12 | RLN2^A19-20: RLN2 mutant with alanine substitution at the A19-20 positions of the A chain (chain 1 SWMEEVIKLCGRELVRAQIAICGMSTWSHHHHHH; chain 2 QLYSALANKCCHVGCTKRAAARFC; not fully specified; ends and bridges not checked) | – | decreased LGR7-activation activities | – | –
13 | WT RLN2 (His1): recombinant wild type RLN2 with N-terminal Myc tag and His6 tag at the N or C terminus of the B chain (position 1) (chain 1 SWMEEVIKLCGRELVRAQIAICGMSTWS; chain 2 QLYSALANKCCHVGCTKRSLARFC; not fully specified; ends and bridges not checked; also: N-terminal Myc tag) | 8.66 ± 0.09 | – | – | –
14 | WT RLN2 (His2): recombinant wild type RLN2 with N-terminal Myc tag and His6 tag at the N or C terminus of the B chain (position 2) (chain 1 SWMEEVIKLCGRELVRAQIAICGMSTWS; chain 2 QLYSALANKCCHVGCTKRSLARFC; not fully specified; ends and bridges not checked; also: N-terminal Myc tag) | 8.77 ± 0.10 | – | – | –
15 | WT RLN3: recombinant wild type human relaxin 3 [reference compound] | 7.73 ± 0.07 | selectively activated | – | –
16 | B1 | – | – | selectively activated | pEC50 on the activation of LGR8 ([3]; HEK293T cells stably expressing LGR8, mean ± S.E., ND = pEC50 not measurable): 9.03 ± 0.05
